Assay results published in a protein production outcome set (Wang et al. 2014).
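Note: failed if final PepcDB status was selected cloned or expressed and not failed if soluble or beyond.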

Assay: label from the status in PepcDB records
With “MAPSCLKMAHMRLLLTSFGHDHIRDFVRGTVAYIPDATRLFADSPEAAPFMETERNMLREHGLSIRELPISTSTPEEVDRVLGEVDGVYVAGGETFDLMWLLRSTGNDEVLIKHVRAGLPYIGTSAGAVIAGPSIEPISFLDSPDVAPNLSDYSGLGLCEHVVVPHAGGTIPQFPIDVFAETVRTYGAEFPLVLLKDGQALLIDDHGVHLILEHHHHHH” the protein production was “not failed”.
For “MAPTIRLPFRRTLALLASATILAQTGMSGIAFAQTSPETAVPGVAAPVPAAPTPPASTPQQTPPVQTVVPTNGPASVADLAEGLLDAVVNISTSQNVKDDEGVGPAPRAPDGSPFQEFFNDFFNKKQGNKGPNHNVSSLGSGFVIDPAGYIVTNNHVIEGADDIEVNFANGSKLKAKLIGTDTKTDLSVLKVEPKTPLKSVKFGDSSEMRIGDWVMAIGNPFGFGGSVTVGIISGRGRNINAGPYDNFIQTDAAINKGNSGGPLFNMKGEVIGINTAIISPSGGSIGIGFSVPSELASGVVEQLRQYGETRRGWLGVRIQPVTDDIADSLGLDTAKGALVAGVIKGGPVDDGSIKAGDVILKFDGKTVNEMRDLPRVVAESTVGKEVDVVVLRDGKEQTVKVKLGRLEDSDQAASGDASPDGSQDGVITPDPDENDDMDQPDTGDQVAPAPGAPAPDQHQQGQVSPDAATPKNVLGLSLSLLSPETRKAFGIAESVDGVVVTEVEPGSASAEKGLKPGDVIVEVAQEFMKSPDAVAAKVKSLKQEGRRNAQLMIASANGDLRFVAVPME”, the protein production was “failed”.
With “MAPTLAGPNVAGDCFPGASGCIVLPMSGSLSLHIAAFLALLPAAFTPLRQTPGRDGLFWGTLGVAIIGALVVSIVPSLRQGMWSTSFSSALWVSIAATLLLFSELCFRHQAAWRLTPVLMPYLIALGAMATIWEGAEGAPLADHAPAFWTVLHIVIAVLTYGMLTLGAVAALAGFLQERALKARRPTSLTRRLPAAAEADRLSWILLYTSEWVLGAGLLTGMAVEYLETGAILQPDHKSMLSSLAFLVIGGLILARSRWGVRGRVGARVVLLAYLLLTLAFPGVKFVSDVLL” the protein production was “failed”.
In the case of “MAPTLQGQWIKVGQKGGTGPGPRSSHGIAAVGDKLYSFGGELTPNKHIDKDLYVFDFNTQTWSIAQPKGDAPTVSCLGVRMVAVGTKIYIFGGRDENRNFENFRSYDTVTSEWTFLTKLDEVGGPEARTFHSMASDENHVYVFGGVSKGGTMNTPTRFRTIEAYNIADGKWAQLPDPGDNFEKRGGAGFAVVQGKIWVVYGFATSIVPGGKDDYESNAVQFYDPASKKWTEVETTGAKPSARSVFAHAVVGKYIIIFAGEVWPDLNGHYGPGTLSNEGYALDTETLVWEKLGEEGAPAIPRGWTAYTAATVDGKNGLLMHGGKLPTNERTDDLYFYAVNSA”, the protein production was “failed”.
For “MAQATSPIELALTTGRGHQAEVRLAKPDGSYLPVIASCNPLNRSDGGIVLTLNDISELRSAERAVSDRAEELATLNRELKETSQATTRLVKLGELLQACVTFHEAFSVVGSAMPDFFGGLSGTVHLTSASRNLVEEMAHWGAVRSSVGQFAPEDCWALRRGQEHVAGPGMLTPRCNHITENGGRGYVCMPLAAQGETLGIVHLCEPDAADRPDWLTERQQILRGVVDTLALALANLRLRETLRQQSIRDPNTGLYNRRYLEETSSRELRRMERSGQPLAMIMLDVDHFKQFNDTFGHEAGDLVLKQVAATLLDHARESDVVSRYGGEEFALMMPGTSLADAAERAEALRKAIKQLHLTHRGRTLGTITASFGVSAFPELGASWVEIVNAADRSLYQAKADGRDRVVAGLGRADPQWDLSTASQSVA”, the protein production was “failed”.
With “MAQEEAGRLPQVLARVGTSHGITDLACKLRFYDDWAPEYDQDVAALKYRAPRLAVDCLSQALQGPPHDALILDVACGTGLVAVELQARGFLQVQGVDGSPEMLKQARARGLYHHLSLCTLGQEPLPYPKGTFDAVIIVGALSEGQVPCSAIPELLRVTKPGGLVCLTTRTNPSNLPYKEALEAALDSLEQAGAWERLVTQPVDHWELATSEQESGLATCANDGFISGVIYLYRKQETAQGERGRLSIQPLIDH” the protein production was “failed”.
With “MAQFPTPFGGSLDIWAITVEERAKHDQQFHSLKPISGFITGDQARNFFFQSGLPQPVLAQIWALADMNNDGRMDQVEFSIAMKLIKLKLQGYQLPSALPPVMKQQPVAISSAPPFGMGGIASMPPLTAVAPVPMGSIPVVGMSPTLVSSVPTAAVPPLANGAPPVIQPLPAFAHPAATLPK” the protein production was “failed”.
